Laboratory results: IntAct's records for PubMed 20837657

B1: Segment polarity protein dishevelled (Drosophila melanogaster (Fruit fly)), P51140 (parent)
chain: MDADRGGGQETKVIYHIDDETTPYLVKIPIPSAQVTLRDFKLVLNKQNNNYKYFFKSMDADFGVVKEEIADDSTILPCFNGRVVSWLVSADGTNQSDNCSELPTSECELGMGLTNRKLQQQQQQHQQQQQQQQQQHQQQQQQQQQQVQPVQLAQQQQQQVLHHQKMMGNPLLQPPPLTYQSASVLSSDLDSTSLFGTESELTLDRDMTDYSSVQRLQVRKKPQRRKKRAPSMSRTSSYSSITDSTMSLNIITVSINMEAVNFLGISIVGQSNRGGDGGIYVGSIMKGGAVALDGRIEPGDMILQVNDVNFENMTNDEAVRVLREVVQKPGPIKLVVAKCWDPNPKGYFTIPRTEPVRPIDPGAWVAHTQALTSHDSIIADIAEPIKERLDQNNLEEIVKAMTKPDSGLEIRDRMWLKITIPNAFIGADAVNWVLENVEDVQDRREARRIVSAMLRSNYIKHTVNKLTFSEQCYYVVNEERNPNLLGRGHLHPHQLPHGHGGHALSHADTESITSDIGPLPNPPIYMPYSATYNPSHGYQPIQYGIAERHISSGSSSSDVLTSKDISASQSDITSVIHQANQLTIAAHGSNKSSGSSNRGGGGGGGGGGNNTNDQDVSVFNYVL

Variants of: B1
Details: with abl_drome Abl

Variant	effect of a mutation on the interaction
Y473F	decreasing interaction strength
